# Laboratory results reported in EP4725968A1 (Salubris (Chengdu) Biotech Co., Ltd., dated 2024).
# Assays:
# GPC3-A peptide = target: T1, GPC3-A peptide; assay: ELISA, peptide coated at 6 µg/mL
# T1 construct: Peptide of the GPC3 antigen
# T1 peptide: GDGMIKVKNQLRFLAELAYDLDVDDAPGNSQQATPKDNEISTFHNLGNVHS
# GPC3-B peptide = target: T2, GPC3-B peptide; assay: ELISA, peptide coated at 6 µg/mL
# T2 peptide: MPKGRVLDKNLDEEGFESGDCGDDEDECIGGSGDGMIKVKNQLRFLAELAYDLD
# [1] = target: T3, Mouse GPC3 (ACRO Biosystems, GP3-M52H3) (mouse, UniProt Q8CFZ4 25-558); assay: ELISA, GPC3 protein coated at 6 µg/mL; × indicates no affinity recognition
# T3 construct: also called mouse Gpc3 protein; mouse GPC3 protein
# T3 sequence (Q8CFZ4 25-558 limits assumed): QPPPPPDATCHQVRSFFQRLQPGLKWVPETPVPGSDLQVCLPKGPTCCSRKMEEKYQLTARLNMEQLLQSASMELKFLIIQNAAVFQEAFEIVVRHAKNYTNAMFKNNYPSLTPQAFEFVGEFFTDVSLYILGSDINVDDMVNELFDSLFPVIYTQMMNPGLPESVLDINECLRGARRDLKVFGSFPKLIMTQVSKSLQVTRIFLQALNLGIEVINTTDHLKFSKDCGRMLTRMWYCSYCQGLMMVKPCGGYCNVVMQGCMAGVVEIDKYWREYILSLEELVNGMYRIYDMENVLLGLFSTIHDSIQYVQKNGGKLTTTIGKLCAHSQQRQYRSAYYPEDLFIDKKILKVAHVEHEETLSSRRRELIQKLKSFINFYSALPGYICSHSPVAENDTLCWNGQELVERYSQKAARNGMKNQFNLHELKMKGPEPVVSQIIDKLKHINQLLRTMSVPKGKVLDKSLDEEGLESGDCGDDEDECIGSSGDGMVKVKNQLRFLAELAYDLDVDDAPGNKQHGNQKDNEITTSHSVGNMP
# GPC3-B8 = target: T4, GPC3-B8; assay: ELISA, overlapping peptide coated at 6 µg/mL
# T4 construct: also called long fragments containing GPC3-B3
# T4 peptide: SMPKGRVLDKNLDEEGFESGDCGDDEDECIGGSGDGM
# GPC3-B3 = target: T5, GPC3-B3 (human); assay: ELISA, overlapping peptide coated at 6 µg/mL
# T5 construct: Overlapping peptide of GPC3-B
# T5 peptide: DKNLDEEGFESG
Binder,binding result (GPC3-B peptide),other results
"hYP7HM (antibody, human IgG1, kappa, L234A L235A, V domains shown, Control anti-GPC3 antibody; also called control antibody hYP7HM; control anti-GPC3 antibody hYP7HM) VH: EVQLVESGGGLVQPGGSLRLSCAASGFTFNKNAMNWVRQAPGKGLEWVGRIRNKTNNYATYYADSVKGRFTISRDDSKNSLYLQMNSLKTEDTAVYYCVAGNSFAYWGQGTLVTVSA VL: not shown",,binding result (GPC3-A peptide): binds
"GC067 (antibody, V domains shown, Detected with anti-human IgG-Fc-HRP) VH: EVQLLESGGGVVQPGRSLRLSCAASGFTFSSYAMHWVRQAPGKGLEWVAVISYDGSNKYYADSVKGRFTISRDNSKNTLYLQMNSLRAEDTAVYYCARRLRGSGMDVWGQGTPVTVSS VL: not shown",binds,
"GC035 (antibody, V domains shown, Detected with anti-human IgG-Fc-HRP) VH: EVQLLESGGGVVRPGRSLRLSCAASGFTFSSYAMHWVRQAPGKGLEWVAVISYDGSNKYYADSVKGRFTISRDNSKNTLYLQMNSLRAEDTAVYYCARRKSGSSFDYWGQGTPVTVSS VL: DIQLTQSPSSLSASVGDRVTITCRAGQTINNYLHWYQQKPGKAPKLLIFAASSLQSGVPSRFSGSGSGTDFTLTISSLQPEDFATYYCQQSYSPPLTFGGGTRVEIK",binds,
"GC010 (antibody, V domains shown, Detected with anti-human IgG-Fc-HRP) VH: EVQLLESGGGVVQPGRSLRLSCAASGFTFSSYAMHWVRQAPGKGLEWVAVISYDGSNKYYADSVKGRFTISRDNSKNTLYLQMNSLRAEDTAVYYCARDESRRKFDYWGQGTTVTVSS VL: not shown",binds,
"GC025 (antibody, V domains shown, Detected with anti-human IgG-Fc-HRP) VH: EVQLLESGGGVVQPGRSLRLSCAASGFTFSSYAMHWVRQAPGKGLEWVAVISYDGSNKYYADSVKGRFTISRDNSKNTLYLQMNSLRAEDTAVYYCARRQRAAIDYWGQGTTVTVSS VL: DIQLTQSPSSLSASVGDRVTITCRASQSISSYLSWYQQKPGKAPKLLIYGASSLQSGVPSRFSGSGSGTDFTLTISSLQPEDFATYSCQQSYSTQFTFGPGTKVDIK",binds,

# Continued, in another order:
binding result (GPC3-B peptide),Binder,other results
binds,"GC011 (antibody, V domains shown, Detected with anti-human IgG-Fc-HRP) VH: EVQLLESGGGVVQPGRSLRLSCAASGFTFSSYGMHWVRQAPGKGLEWVAVISYDGSNKYYADSVKGRFTISRDNSKNTLYLQMNSLRAEDTAVYYCAKNPSLDYWGQGTTVTVSS VL: NIQMTQSPSSLSASVGDRVTITCRASQSITRYLNWYQQKPGKGPKLLIYAASRLQSGVPSRFSGSGSGTDFTLTISSLQPEDFATYYCQQSHSIPRTFGQGTKLEIK",
binds,"GC139 (antibody, V domains shown, Detected with anti-human IgG-Fc-HRP) VH: EVQLVESGGGLIQPGGSLRLSCAASGFTFSSYAMHWVRQAPGKGLEYVSAISSNGGSTYYADSVKGRFTISRDNSKNTLYLQMSSLRPDDTAVYYCVRGWIRPPPGSFDLWGQGTTVTVSS VL: not shown",
binds,"GC053 (antibody, V domains shown, Detected with anti-human IgG-Fc-HRP) VH: EVQLLESGGGLVQPGGSLRLSCAASGFTFSSYAMHWVRQAPGKGLEYVSAISSNGGSTYYANSVKGRFTISRDNSKNTLYLQMGSLRPDDTAVYYCVRGWIRPPPGSFDLWGQGTTVTVSS VL: NIQMTQSPSSLSAFVGDRVTITCRASQSISRYLNWYQHKPGQAPKLLMYAASTLQDEVPSRFSGSGSGTYFTLTISSLEPEDFATYYCQQSYSTPPTFGGGTKVEIK",
binds,"GC037 (antibody, V domains shown, Detected with anti-human IgG-Fc-HRP) VH: EVQLLESGGGLVQPGGSLRLSCAASGFTFSSYAMHWVRQAPGKGLEYVSAISSNGGSTYYANSVKGRFTISRHPSKNILFLEMNSLRPDDTAVYYCVRGWIRPPPGSFDLWGQGTPVTVSS VL: AIRLTQFPSSLSASVGDRVTITCRARQSIDNYLNWYQEKPGKAPKLLIYAASSLQSGVPSRFSGSGSGTEFTLTISSLQPDDFAAYYCQQSYDSPPTFGQGTKVEIK",
binds,"GC147 (antibody, V domains shown, Detected with anti-human IgG-Fc-HRP) VH: EVQLVESGGGLVQPGGSLRLSCAASGFTFSSYAMHWVRQAPGKGLEYVSAISSNGGSTYYANSVKGRFTISRDNSKNTLYLQMGSLRAEDMAVYYCVRGWIRPPPGSFDLWGQGTPVTVSS VL: AIRLTQSPSSLSASVGDRVSITCRASQSISTFLNWYQQKPGKAPNLLIYSASTLQSGVPSRFSGSGSGTDFTLTISSLQPEDFATYYCQQSYSSPPTFGQGTKLEIK",
binds,"GC008 (antibody, V domains shown, Detected with anti-human IgG-Fc-HRP in the ELISA, so it carried a human Fc) VH: EVQLLESGGGLVQPGGSMRLSCAASEIDFSVYALGWSRQAPGKQRELVATITTSSTTTYADSVKGRFTISRDNAKNTVYLQMNSLKPEDTAVYYCHTLRRTGSGIVPGRIWGQGTPVTVSS VL: DIQLTQSPSSLSASVGDRVTITCQASQDIDNSVTWYQQRPGKAPSLLISDASILESGVPSRFSGRGSGTHFTLSITSLQPEDIATYYCQQYENLPITFGQGTRLEIK",
binds,"GC90 (antibody, V domains shown, Human IgG1 / kappa; also called GC90 monoclonal antibody; humanized monoclonal antibody GC90) VH: QVQLLESGGGLVQPGGSLRVSCAASGFTFNSYAMSWVRQAPGKGLEWVASIKSSGDRVQYADSVKGRFTISRDNSKNTVYLEMNSLRAEDTAIYYCAKPQWSSPQRTFEVWGQGTPVTVSS VL: not shown",binding result [1]: no binding (tested: 30 nM); binding result (GPC3-B8): binds; binding result (GPC3-B3): binds
